Measurements as given in patent US20260069707A1, “COMBINATION THERAPY WITH ANTIBODY-DRUG CONJUGATES AND HYALURONIDASES” (HALOZYME, INC., priority 2024, published 2026).
Values joined by “and” are separate entries in the source; they are usually repeats but may differ in a detail not shown here. Equal values may be shown once.

Experiments:
[1] = Post-injection bleb volume, area, height - caliper measurement; format: in vivo, Yucatan miniature pig (Sus scrofa domestica)
Experimental: The needle was inserted vertically into the marked injection site and the HVAI held in place by hand. Target needle insertion depth was ˜10 mm. Injections were timed using a stopwatch. Upon completion of the injection the needle was removed and the HVAI device discarded. Test solution back-leakage was then absorbed to a tared eye-spear for 30 seconds on the injection site and the weight of the eye spear was measured using an analytical balance. The margins of the injection site bleb were marked with a permanent marker and measured for length, width, and height using a digital caliper and recorded then photographed with the standard and 3D cameras. Caliper measurements and photographs were taken immediately post-injection. Local injection sites were qualitatively assessed and graded daily for erythema severity, swelling size appearance, and firmness, using a scoring system described in Table 4 Table 5, and Table 6, respectively.
Assessment of Local Swelling Volume and Area Using Caliper Measurement and 3D Imaging. Volume and area of post-injection swelling were measured using both caliper measurement and 3D camera image analysis. For caliper measurements a digital caliper was utilized to measure length, width and height of the bleb that formed post-injection. The length and width are defined as the edge to edge measurements of the bleb (i.e., diameter) along their longest axes. These values were manually recorded, and the volume determined using the formula for half of an ellipsoid Vol=(⅔)*π*A*B*C where A=Length/2, B=Width/2 and C=Height.
Assessment of Post-Injection Bleb Volume, Area and Height (Caliper Measurements). The local injection site swelling (bleb) was marked and measured using a digital caliper.

[2] = Enhertu analytes (TAB, TADC, free payload) in skin tissue homogenates of injection site; format: in vivo, Yucatan miniature pig (Sus scrofa domestica)
Experimental: Porcine serum was used as surrogate matrix to prepare calibration standards and quality controls for skin sample quantitation. Untreated blank porcine skin was provided for preparation of monitoring quality controls. The porcine skin was homogenized at an approximate ratio of 0.5 mL of buffer for every 100 mg of skin. […] The monitoring controls were analyzed during the method performance evaluation. The following were selected for monitoring in the assay (Table 83).
Porcine serum was used as surrogate matrix to prepare calibration standards and quality controls for the quantitation of skin samples. […] The porcine skin was homogenized at an approximate ratio of 0.5 mL of buffer for every 100 mg of skin. […] These were analyzed during the method performance evaluation.
This sample was divided vertically into two identical pieces. One skin sample was placed into a pre-weighed cryogenic tube and its weight was recorded then stored on dry ice prior to transfer to ≤−70° C. The other skin sample was processed for potential future histological assessment into OCT freezing media and frozen on dry ice.
Animals received two SC doses on their lower abdominal region.
Two cohorts were included in the follow-on study. […] Each animal had two full thickness skin biopsies taken post-mortem using a 12 mm punch. This sample was divided vertically into two identical pieces. One skin sample was placed into a pre-weighed cryogenic tube and its weight was recorded, then stored on dry ice prior to transfer to ≤−70° C. The other skin sample was processed into OCT molds for potential future histological assessment.
Tissue lysates were prepared based upon the weight of the sample at a ratio of 0.2 g/mL homogenization buffer (Tables 81 and 82). The total protein concentration of each homogenate was determined by BCA assay. The concentration of the total ADC (TADC), total antibody (TAB) and free payload (deruxtecan) in each sample was then normalized to the protein concentration and reported in μg analyte per mg total protein.
In this study, six animals were used. […] Two cohorts were included in this study. Cohort 1 was euthanized 24 hours after treatment, while Cohort 2 was euthanized 48 hours after exposure to the two test solutions.

[3] = Example 4 Study #1: bleb after 20 mL SC
[4] = Example 4 Study #2: bleb after 20 mL SC
[5] = 24 hours after SC administration
[6] = 48 hours after SC administration
[7] = SC, day 1, individual animal, listed as ADC
[8] = SC, day 2, individual animal, listed as ADC
[9] = SC, day 7, individual animal, listed as ADC
[10] = SC, individual series, listed as ADC

Sacituzumab govitecan [Trodelvy]
Height (mm) (Mean ± SEM) [1, 3]: 10.8 ± 0.6 mm
Volume (cc) (Mean ± SEM) [1, 3]: 65.5 ± 3.6 cc
Height (mm) (Mean ± SEM) [1, 4]: 10.8 ± 0.6 mm
Volume (cc) (Mean ± SEM) [1, 4]: 65.5 ± 3.6 cc
Post-injection bleb Area, caliper (Mean ± SEM) ([1]; minipig, 10 mL SC by HVAI, Trodelvy (ADC) ± rHuPH20 2000 U/mL, T0, n=3, Examples 1, 2, 5): 25.4 ± 0.5
Post-injection bleb Volume, caliper (Mean ± SEM) ([1]; minipig, 10 mL SC by HVAI, Trodelvy (ADC) ± rHuPH20 2000 U/mL, T0, n=3, Examples 1, 2, 5 (FIG. 3: mL)): 44.3 ± 4.0
Post-injection bleb Height, caliper (Mean ± SEM) ([1]; minipig, 10 mL SC by HVAI, Trodelvy (ADC) ± rHuPH20 2000 U/mL, T0, n=3, Examples 1, 2, 5 (FIG. 5: mm)): 8.7 ± 0.7
Mean ADC in minipig skin [2, 5]: 24.21
Mean antibody (Ab) in minipig skin [2, 5]: 27.65
Mean payload in minipig skin [2, 5]: 0.02
Mean ADC in minipig skin [2, 6]: 6.92
Mean antibody (Ab) in minipig skin [2, 6]: 7.97
Mean payload in minipig skin [2, 6]: 0.00
Mean skin concentration, Free Payload ([2]; SC, 24 h post-injection): 0.02 μg/mg protein
Mean skin concentration, Total ADC (TADC) ([2]; SC, 24 h post-injection): 24.21 μg/mg protein
Mean skin concentration, Total Antibody (TAB) ([2]; SC, 24 h post-injection): 27.65 μg/mg protein
Mean skin concentration, Free Payload ([2]; SC, 48 h post-injection): 0.0042 μg/mg protein
Mean skin concentration, Total ADC (TADC) ([2]; SC, 48 h post-injection): 6.92 μg/mg protein
Mean skin concentration, Total Antibody (TAB) ([2]; SC, 48 h post-injection): 7.97 μg/mg protein
Mean skin concentration, Free Payload ([2]; SC, 168 h post-injection): 0.0004 μg/mg protein
Mean skin concentration, Total ADC (TADC) ([2]; SC, 168 h post-injection): 0.57 μg/mg protein
Mean skin concentration, Total Antibody (TAB) ([2]; SC, 168 h post-injection): 0.73 μg/mg protein
Concentration of free payload in the skin of minipigs [2, 7]: 0.026 ug/mg protein and 0.020 ug/mg protein and 0.011 ug/mg protein
Total ADC concentration in the skin of minipigs [2, 7]: 38.48 ug/mg protein and 22.00 ug/mg protein and 12.15 ug/mg protein
Total antibody concentration in the skin of minipigs [2, 7]: 44.05 ug/mg protein and 22.63 ug/mg protein and 16.28 ug/mg protein
Concentration of free payload in the skin of minipigs ([2]; SC, day 1, mean): 0.02 ug/mg protein
Total ADC concentration in the skin of minipigs ([2]; SC, day 1, mean): 24.21 ug/mg protein
Total antibody concentration in the skin of minipigs ([2]; SC, day 1, mean): 27.65 ug/mg protein
Concentration of free payload in the skin of minipigs [2, 8]: 0.003 ug/mg protein and 0.005 ug/mg protein (2×)
Total ADC concentration in the skin of minipigs [2, 8]: 5.97 ug/mg protein and 6.98 ug/mg protein and 7.80 ug/mg protein
Total antibody concentration in the skin of minipigs [2, 8]: 7.70 ug/mg protein and 8.07 ug/mg protein and 8.14 ug/mg protein
Concentration of free payload in the skin of minipigs ([2]; SC, day 2, mean): 0.00 ug/mg protein
Total ADC concentration in the skin of minipigs ([2]; SC, day 2, mean): 6.92 ug/mg protein
Total antibody concentration in the skin of minipigs ([2]; SC, day 2, mean): 7.97 ug/mg protein
Concentration of free payload in the skin of minipigs [2, 9]: 0.001 ug/mg protein and 0.000 ug/mg protein (2×)
Total ADC concentration in the skin of minipigs [2, 9]: 0.69 ug/mg protein and 0.48 ug/mg protein and 0.55 ug/mg protein
Total antibody concentration in the skin of minipigs [2, 9]: 0.68 ug/mg protein and 0.72 ug/mg protein and 0.79 ug/mg protein
Concentration of free payload in the skin of minipigs ([2]; SC, day 7, mean): 0.00 ug/mg protein
Total ADC concentration in the skin of minipigs ([2]; SC, day 7, mean): 0.57 ug/mg protein
Total antibody concentration in the skin of minipigs ([2]; SC, day 7, mean): 0.73 ug/mg protein
AUC1-7, free payload in skin [2, 10]: 0.024 ug*day/mL (2×) and 0.021 ug*day/mL
AUC1-7, total ADC in skin [2, 10]: 38.87 µg·days/mL and 33.14 µg·days/mL and 30.85 µg·days/mL
AUC1-7, total antibody in skin [2, 10]: 46.85 µg·days/mL and 37.33 µg·days/mL and 34.52 µg·days/mL
Cmax, free payload in skin [2, 10]: 26 ng/mL and 20 ng/mL and 11 ng/mL
Cmax, total ADC in skin [2, 10]: 38480 ng/mL and 22000 ng/mL and 12150 ng/mL
Cmax, total antibody in skin [2, 10]: 44050 ng/mL and 22630 ng/mL and 16280 ng/mL
AUC1-7, free payload in skin ([2]; SC, mean): 0.02 µg·days/mL
AUC1-7, total ADC in skin ([2]; SC, mean): 34.29 µg·days/mL
AUC1-7, total antibody in skin ([2]; SC, mean): 39.57 µg·days/mL
Cmax, free payload in skin ([2]; SC, mean): 20 ng/mL
